Measured values from the supplement of paper PMC7877785.
± gives the uncertainty stated by the source.

Experiment: self-splicing fitness, log relative to wild type (ln ratio); higher = more splicing; Tetrahymena group I intron in knt gene, E. coli kanamycin selection, DiMSum; sequences stand for … in CUCUCU…GGAGGGAAAAGUUAUCAGGCAUGCACCUGGUAGCUAGUCUUUAAACCAAUAGAUUGCAUCGGUUUAAAAGGCAAGACCGUCAAAUUGCGGGAAAGGGGUCAACAGCCGUUCAGUACCAAGUCUCAGGGGAAACUUUGAGAUGGCCUUGCAAAGGGUAUGGUAAUAAGCUGACGGACAUGGUCCUAACCACGCAGCCAAGUCCUAAGUCAACAGAUCUUCUGUUGAUAUGGAUGCAGUUCACAGACUAAAUGUCGGUCGGGGAAGAUGUAUUCUUCUCAUAAGAUAUAGUCGGACCUCUCCUUAAUGGGAGCUAGCGGAUGAAGUGAUGCAACACUGGAGCCGCUGGGAACUAAUUUGUAUGCGAAAGUAUAUUGAUUAGUUUUGGAGUACUCGUGGUCG
Summary of the method: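 Pooled colonies went to amplicon sequencing on an Illumina HiSeq 2500 after six replicate transformations. The plates were LB agar with 100 μg/mL carbenicillin, 50 μM IPTG and 0.2% rhamnose, with or without 25 μg/mL kanamycin, incubated overnight at 37°C or 30°C. The E. coli BL21(DE3) library had all eight P1ex-region intron nucleotides randomised, the intron placed in the knt kanamycin-resistance gene on pET-22b(+). DiMSum fitness is the error-weighted combination of replicate fold changes, kanamycin against none, normalised to wild type.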

Row | Sequence | self-splicing fitness (ln) (30 °C) | self-splicing fitness (ln) (37 °C)
1 | GUUCAGCAAUAUUACGGAAA | -0.778 ± 0.13 | 0.58 ± 0.19
2 | GCAGAGCAAUAUUACGGAUA | -1.48 ± 0.32 | -2.92 ± 0.4
3 | GGCGAGCAAUAUUACGUCCA | -1.97 ± 0.14 | -1.02 ± 0.12
4 | UUACAGCAAUAUUACGCCAA | -1.35 ± 0.17 | -1.01 ± 0.17
5 | UACAAGCAAUAUUACGAAGA | -2.08 ± 0.27 | -2.11 ± 0.21
6 | GCGGAGCAAUAUUACGGGUA | -4.43 ± 0.42 | -1.72 ± 0.2
7 | AGAAAGCAAUAUUACGUUGG | -3.2 ± 0.2 | -0.323 ± 0.12
8 | UUAUAGCAAUAUUACGUUGG | -2.91 ± 0.22 | -1.86 ± 0.21
9 | CCUAAGCAAUAUUACGUGUA | -3.61 ± 0.15 | -1.89 ± 0.14
10 | AGUUAGCAAUAUUACGGAAC |  | -2.72 ± 0.38
11 | CGUUAGCAAUAUUACGAGUG | -1.18 ± 0.078 | 0.184 ± 0.094
12 | AGGGAGCAAUAUUACGCUGU | -2.11 ± 0.26 | -3.01 ± 0.47
13 | UAUCAGCAAUAUUACGUCUA | -0.033 ± 0.078 | 0.747 ± 0.1
14 | GAGUAGCAAUAUUACGGUAC | -2.69 ± 0.37 | -2.01 ± 0.33
15 | CCAGAGCAAUAUUACGCGGA | -3.2 ± 0.34 | -2.49 ± 0.24
16 | UUGUAGCAAUAUUACGCACA | -0.174 ± 0.17 | -0.658 ± 0.22
17 | CAUCAGCAAUAUUACGCAAC |  | -1.59 ± 0.28
18 | UUAAAGCAAUAUUACGAUUC | -1.07 ± 0.1 | -0.514 ± 0.11
19 | UAUAAGCAAUAUUACGGUAG | -1.59 ± 0.077 | -0.912 ± 0.095
20 | UGCCAGCAAUAUUACGGAGC | -3.73 ± 0.4 | -3.1 ± 0.35
21 | UCACAGCAAUAUUACGUGUA | -2.2 ± 0.089 | -1.09 ± 0.088
22 | GGCCAGCAAUAUUACGGUCU | -2.82 ± 0.15 | -2.78 ± 0.3
23 | GGUUAGCAAUAUUACGAAGC | -0.991 ± 0.17 | -1.24 ± 0.18
24 | UGUAAGCAAUAUUACGACUC | -1.52 ± 0.19 | -0.632 ± 0.25
25 | ACCUAGCAAUAUUACGUCUU | -0.806 ± 0.064 | -0.667 ± 0.075

Row | Sequence | self-splicing fitness (ln) (30 °C) | self-splicing fitness (ln) (37 °C)
26 | CCCUAGCAAUAUUACGUUUA | -2.91 ± 0.14 | -2.16 ± 0.16
27 | AUCCAGCAAUAUUACGGUGA | -1.55 ± 0.096 | -1.17 ± 0.11
28 | CACUAGCAAUAUUACGUAUG | -1.82 ± 0.061 | -0.818 ± 0.068
29 | GAGCAGCAAUAUUACGAAGA | -2.69 ± 0.45 | -1.14 ± 0.27
30 | GACAAGCAAUAUUACGUGUG | -2.78 ± 0.078 | -1.56 ± 0.083
31 | UCUGAGCAAUAUUACGCCCU |  | -1.62 ± 0.33
32 | AGGAAGCAAUAUUACGCUAG | -2.44 ± 0.42 | 
33 | CGCGAGCAAUAUUACGUGUU | -3.1 ± 0.15 | -2.75 ± 0.17
34 | GCACAGCAAUAUUACGCCCA | -1.72 ± 0.27 | -0.754 ± 0.24
35 | AUAGAGCAAUAUUACGGUAA | -1.76 ± 0.15 | -1.42 ± 0.17
36 | CAGAAGCAAUAUUACGACAC |  | -2.1 ± 0.29
37 | ACGCAGCAAUAUUACGAGUA | -3.72 ± 0.33 | -3.07 ± 0.27
38 | GAGUAGCAAUAUUACGGUCU | -1.24 ± 0.15 | -1.22 ± 0.17
39 | GGUGAGCAAUAUUACGAGCA | -0.652 ± 0.23 | -1.1 ± 0.29
40 | CUUCAGCAAUAUUACGAAGC | -2.1 ± 0.17 | -2.43 ± 0.48
41 | GACAAGCAAUAUUACGCGCG | -0.648 ± 0.091 | -0.467 ± 0.11
42 | UUCUAGCAAUAUUACGCAUU | -1.95 ± 0.29 | -1.5 ± 0.35
43 | UACCAGCAAUAUUACGCCGC | -2.89 ± 0.38 | -2.37 ± 0.35
44 | AAUGAGCAAUAUUACGUGUC | -3.39 ± 0.25 | -3.65 ± 0.39
45 | ACAUAGCAAUAUUACGUUCC | -2.65 ± 0.23 | -2.1 ± 0.34
46 | AGACAGCAAUAUUACGUGAU | -2.36 ± 0.075 | -0.742 ± 0.087
47 | CAUAAGCAAUAUUACGAGAC | -3.9 ± 0.37 | 
48 | AGAGAGCAAUAUUACGUUGA | -2.77 ± 0.23 | -2.06 ± 0.26
49 | CAUGAGCAAUAUUACGAGGU | -3.26 ± 0.33 | -3.11 ± 0.4
